{"source": "paper PMC4263579", "target": "recombinant NS1 protein (dengue virus non-structural 1 protein)", "assay": "native gel or EMSA; Native-PAGE of the recombinant NS1 protein; data not shown"}
{"substance": "recombinant NS1 protein (dengue virus non-structural 1 protein)", "values": [{"measurement": "stoichiometry N", "value": 6}]}
